The source of these data is patent publication US20110008841A1.

In this test the target is chimera L. The experiment in a line: Bio-Plex titration on bead-captured chimera; cell bold and boxed = binding lost.

B1: AMH26/AML26 (antibody, IgG2, V domains shown)
VH: QVQLVESGGGLVKPGGSLRLSCAASGFTFSDYYMSWIRQAPGKGLEWVSYISSSGSTIYYADSVKGRFTISRDNAKNSLYLQMNSLRAEDTAVYYCARDRTYYFGSGSYEGMDVWGQGTTVTVSS
VL: EILMTQSPATLSVSPGERATLSCRASQSVYSNLAWYQQKPGQAPRLLISGASTRATGIPARFSGSGSGTEFTLTISSLQSEDFAVYYCQQYYNWPWTFGQGTKVEIK
For B1, the EC50 cell marked as binding lost although the number is below wild type was found to be 6 pM.
